Results as given in PMC8041291.

What was measured:
[1] = test system: Nterm (position 1, -----ECG---); experiment: potentiometry; conditions: 25 °C; 0.1 M (4 mM HNO3 + 96 mM KNO3); none (4 mM HNO3 / 96 mM KNO3); metal-free peptide, reduced thiols, argon atmosphere, 0.5-1.5 mM ligand
[2] = test system: Cys2 (position 2, ----ECG----); experiment: potentiometry; conditions: 25 °C; 0.1 M (4 mM HNO3 + 96 mM KNO3); none (4 mM HNO3 / 96 mM KNO3); metal-free peptide, reduced thiols, argon atmosphere, 0.5-1.5 mM ligand
[3] = test system: Glu1 (position 1, -----ECG---); experiment: potentiometry; conditions: 25 °C; 0.1 M (4 mM HNO3 + 96 mM KNO3); none (4 mM HNO3 / 96 mM KNO3); metal-free peptide, reduced thiols, argon atmosphere, 0.5-1.5 mM ligand
[4] = test system: Cterm (position 3, ---ECG-----); experiment: potentiometry; conditions: 25 °C; 0.1 M (4 mM HNO3 + 96 mM KNO3); none (4 mM HNO3 / 96 mM KNO3); metal-free peptide, reduced thiols, argon atmosphere, 0.5-1.5 mM ligand
Nterm1 [5] = experiment: NMR; conditions: metal-free PC2; cited from earlier work
Cys2 [6] = experiment: NMR; conditions: metal-free PC2; cited from earlier work
Cys1 [7] = experiment: NMR; conditions: metal-free PC2; cited from earlier work
Glu2 = experiment: potentiometry; conditions: 25 °C; 0.1 M (4 mM HNO3 + 96 mM KNO3); none (4 mM HNO3 / 96 mM KNO3); metal-free peptide, reduced thiols, argon atmosphere, 0.5-1.5 mM ligand
Glu1 = experiment: potentiometry; conditions: 25 °C; 0.1 M (4 mM HNO3 + 96 mM KNO3); none (4 mM HNO3 / 96 mM KNO3); metal-free peptide, reduced thiols, argon atmosphere, 0.5-1.5 mM ligand
Nterm1 [8] = experiment: potentiometry; conditions: 25 °C; 0.1 M (4 mM HNO3 + 96 mM KNO3); none (4 mM HNO3 / 96 mM KNO3); metal-free peptide, reduced thiols, argon atmosphere, 0.5-1.5 mM ligand
Cys2 [9] = experiment: potentiometry; conditions: 25 °C; 0.1 M (4 mM HNO3 + 96 mM KNO3); none (4 mM HNO3 / 96 mM KNO3); metal-free peptide, reduced thiols, argon atmosphere, 0.5-1.5 mM ligand
Cys1 [10] = experiment: potentiometry; conditions: 25 °C; 0.1 M (4 mM HNO3 + 96 mM KNO3); none (4 mM HNO3 / 96 mM KNO3); metal-free peptide, reduced thiols, argon atmosphere, 0.5-1.5 mM ligand
Cterm5 = experiment: potentiometry; conditions: 25 °C; 0.1 M (4 mM HNO3 + 96 mM KNO3); none (4 mM HNO3 / 96 mM KNO3); metal-free peptide, reduced thiols, argon atmosphere, 0.5-1.5 mM ligand

Molecule “Glutathione (GSH, reduced) (not applicable (commercial reduced L-glutathione, Sigma-Aldrich))” has a pKa [1] of 9.65, a pKa [2] of 8.76 and a pKa [3] of 1.95. It also gave a pKa [4] of 3.64.

For ECECG, the pKa (Nterm1 [5]) is listed as 10.01, the pKa (Cys2 [6]) is listed as 9.40 and the pKa (Cys1 [7]) is listed as 9.53. It also gave a pKa (Glu2) of 3.17, a pKa (Glu1) of 2.43 and a pKa (Nterm1 [8]) of 10.25. It also gave a pKa (Cys2 [9]) of 8.59, a pKa (Cys1 [10]) of 9.69 and a pKa (Cterm5) of 4.30.
